The subject of data set [1] is GST-NDR1. Put plainly: GST-NDR1 in vitro autophosphorylation, incorporated 32P by Cerenkov counting. Format: biochemical, human. Conditions: for amount of incorporated 32P (autophosphorylation), −S100B / amount of incorporated 32P (autophosphorylation), +S100B: GST-NDR1 variant; for amount of incorporated 32P (autophosphorylation), −S100B: 1 microgram, autophosphorylated 2 hours without further additions, pmol ATP/pmol GST-NDR1; for amount of incorporated 32P (autophosphorylation), +S100B: 2 hours in the presence of 1 mM CaCl2 and 10 microM bovine S100B, in pmol ATP/pmol GST-NDR1; for autophosphorylation rate of GST-NDR1 mutant (in words): compared with wild type. The procedure: BL21-DE3-pRep4 E. coli strain was transformed with the pGEX-2T_NDR1 wild type or mutant plasmids. BL21-DE3 is a protease-deficient E. coli strain and pRep4 is a Laclq repressor-bearing plasmid both available commercially. Optionally, if desired, an E. coli strain comprising GroESL can be used, which expresses a chaperone protein that stabilizes the kinase. Mid-logarithmic phase cells were induced with 0.5 mM isopropyl beta-D-thiogalactopyranoside (IPTG) for 4 hours at 30° C. Bacteria were lysed using a French press in the presence of 1 mg/ml lysosyme, and the fusion proteins were purified on glutathione-agarose (Amersham Pharmacia Biotech) as described by the manufacturers. Recombinant proteins were assayed for kinase activity as described below and autophosphorylation was determined after SDS-PAGE separation either by Cerenkov counting or by exposure to a PhosphorImager screen followed by analysis with ImageQuant software (Molecular Dynamics).
In brief, 1 microgram of purified GST-NDR1 (in solution ˜0.5 microM) wild type, kinase dead (K118A), and alanine mutants of phosphorylation residues Thr74, Ser281, and Thr444 were autophosphorylated for 2 hours in vitro without further additions or in the presence of 1 mM CaCl2 and 10 microM bovine S100B. Proteins were visualized on SDS gels using Coomassie Blue R-350 stained SDS-PAGE gel, and [gamma-^32P]ATP-labelled proteins were visualized by autoradiography of the gels developed on a Phosphorimager screen. The amount of incorporated ^32P was quantified by Cerenkov counting.

In data set [2] the test system is GST-NDR1. Nature of the data set: GST-NDR1 kinase assay (peptide kinase assay). It counts as biochemical, human. On the set-up: Specific activity of GST-NDR1 variants, CTRL / Specific activity of GST-NDR1 variants, −S100B / Specific activity of GST-NDR1 variants, +S100B: unit not given here. Conditions: for Specific activity of GST-NDR1 variants, −S100B: autophosphorylated 2 h in the absence of CaCl2 and S100B; for Specific activity of GST-NDR1 variants, +S100B: autophosphorylated 2 h in the presence of 1 mM CaCl2 and 10 mM bovine S100B; for Specific activity of GST-NDR1 variants, CTRL: left without further treatment. The procedure: 1 microgram of purified recombinant GST-NDR1 wild type and mutants (without further treatment or autophosphorylated for 2 h in the presence or absence of 1 mM CaCl2 and […] (Sigma)) were assayed in 20 microliter of reaction mixture containing 20 mM Tris-HCl pH 7.5, 10 mM MgCl2, 1 mM DTT, 100 microM [gamma-^32P]ATP (˜0.5 microCi/microliter), and 1 mM NDR1 substrate peptide ([…]; SEQ ID NO:22). After 30 mins incubation at 30° C., reactions were stopped with 50 mM EDTA, and 10 microliters of reaction mixture were spotted onto 2 cm^2 squares of P81 phosphocellulose paper (Whatman). These were subsequently washed for 4×5 min and 3×20 min in 1% phosphoric acid and once in acetone before counting in a liquid scintillation counter. One unit of NDR1 activity was defined as the amount which catalyses the phosphorylation of 1 nmol peptide substrate in 1 min.
Specific activity of GST-NDR1 mutants was also measured by a peptide kinase assay as described above. For this purpose, 1 microgram of purified GST-NDR1 wild type and alanine mutants were left without further treatment or autophosphorylated for 2 h in the presence or absence of 1 mM CaCl2 and […].

A further data set relates to HA-NDR1. Put plainly: HA-NDR1 kinase assay on 12CA5 immunoprecipitates from transfected, treated COS-1 cells. The arrangement: kinase activity of HA-NDR1 variants, −OA: unit not given here. Format: cell-based, human. The conditions noted are these: COS-1 cells; for kinase activity of HA-NDR1 variants, +OA: 1 microM okadaic acid 1 h; for kinase activity of HA-NDR1 variants, −OA: solvent alone 1 h. The procedure: In some experiments, the cells were treated for 60 min with 1 microM okadaic acid in 0.1% N,N-dimethylformamide (DMF) (Alexis Corp.), 50 microM BAPTA-AM (1,2-bis (o-aminophenoxy) ethane-N,N,N′,N′-tetraacetic acid tetra (acetoxy-methyl)ester) in 0.1% diimethylsulfoxide (DMSO; Sigma), or 20 microM thapsigargin in 0.1% DMSO (Alomone) 24 hours after transfection.
Transfected and treated COS-1 cells were washed once with ice-cold PBS, and harvested by rubber policeman in 1 ml ice-cold PBS containing 1 mM Na3VO4 and 20 mM beta-glycerophosphate before lysis in 500 microliters of IP buffer (20 mM Tris-HCl pH 8.0, 150 mM NaCl, 1% Nonidet P-40, 10% glycerol, 1 mM Na3VO4, 20 mM beta-glycerolphosphate, 1 microM microcystin-LR, 50 mM NaF, 0.5 mM PMSF, 4 microM leupeptin, 1 mM benzamidine, and 1 tablet/10 ml IP of Complete protease inhibitors (Roche)). Lysates were centrifuged at 20 000 g for 20 min and triplicate aliquots (200 microg) of supernatant were precleared with protein A-Sepharose (Amersham Pharmacia Biotech) for 60 min and mixed subsequently for 3 h at 4° C. with 12CA5 antibody prebound to protein A-Sepharose (˜1 microg antibody bound to 2 microl beads). The beads were then washed twice with IP buffer, once for 10 min with IP buffer containing 1 M NaCl, once again for 10 min with IP buffer, and finally twice with 20 mM Tris-HCl pH 7.5 containing 4 microM leupeptin and 1 mM benzamidine. Thereafter, beads were resuspended in 30 microliters buffer containing 20 mM Tris-HCl pH 7.5, 10 mM MgCl2, 1 mM DTT, 100 microM [gamma-^32P]ATP (˜0.1 microCi/microliter), 1 microM cAMP-dependent protein kinase inhibitor peptide PKI (Bachem), 4 microM leupeptin, 1 mM benzamidine, 1 microM microcystin-LR, and 1 mM NDR1 substrate peptide ([…]). After 60 min incubation at 30° C., 15 microliters of supernatant were removed, and phosphate incorporation into the substrate peptide determined as described for GST-NDR1 above.
COS-1 cells expressing either wild type HA-NDR1 or the indicated mutants were treated for 1 h with 1 microM okadaic acid or with solvent alone. HA-tagged NDR kinase variants were then immunoprecipitated (out of 100 microgram of detergent extracts) with 12CA5 monoclonal antibody and assayed for kinase activity by a peptide kinase assay as described above.
Mock-transfected or HA-NDR1-expressing COS-1 cells were treated for 1 h with […], 50 microM BAPTA-AM, and […] or with solvent (0.1% DMF or 0.1% DMSO) alone. 12CA5 immunoprecipitates (out of 100 microgram protein extract) were then assayed using the peptide kinase assay for NDR1 kinase activity.
To test whether hMOB1 plays a role in NDR activation, myc-hMOB1 or the empty vector was cotransfected with HA-NDR1 in COS1 cells and treated with OA. 12CA5 immunoprecipitates were then assayed using the peptide kinase assay for HA-NDR kinase activity. […] GST-MOB and GST respectively was added to immunoprecipitated HA-NDR and kinase reaction were performed. The reactions were resolved on a 10% SDS PAGE and the radioactivity visualised by using a phosphoimager.

This is an account of results in patent US8008452B2, “Phosphorylated Ndr kinase” (Novartis Forschungesstiftung, Zweigniederlassung Friedrich …, priority 2002, dated 2011).

Take “T74A: NDR1 alanine mutant of phosphorylation residue Thr74; GST fusion or HA-tagged”: in the data set on GST-NDR1 [1], the “amount of incorporated 32P (autophosphorylation), −S100B” value (shortened to “amount of incorporated 32P … −S100B”) is 0.158; the “amount of incorporated 32P (autophosphorylation), +S100B” value (shortened to “amount of incorporated 32P … +S100B”) is on record as 0.2072; the “autophosphorylation rate of GST-NDR1 mutant (in words)” value (shortened to “autophosphorylation rate”) was “negligible reduction”. Further, in the data set with GST-NDR1 [2], the “Specific activity of GST-NDR1 variants, −S100B” value (from here on “Specific activity … −S100B”) worked out at 3.786; the “Specific activity of GST-NDR1 variants, +S100B” value (shortened to “Specific activity … +S100B”) was found to be 7.818; the “Specific activity of GST-NDR1 variants, CTRL” value (“Specific activity … CTRL” below) is reported as 1.006. Further, the “kinase activity of GST-NDR1 mutant (in words)” value in the data set on GST-NDR1 [2] (compared with wild type) is on record as “negligible reduction”. Besides, in the data set with HA-NDR1, the “kinase activity of HA-NDR1 variants, +OA” value amounted to 1.053 and the “kinase activity of HA-NDR1 variants, −OA” value is 0.124.
Consider “T444A: NDR1 alanine mutant of phosphorylation residue Thr444; GST fusion or HA-tagged”, for which, in the data set on GST-NDR1 [1], the “amount of incorporated 32P … −S100B” value is listed as 0.1232; the “amount of incorporated 32P … +S100B” value is recorded as 0.2412; the “autophosphorylation rate” value is given as “significant decrease”. Moreover, in the data set with GST-NDR1 [2], the “Specific activity … −S100B” value is recorded as 1.92; the “Specific activity … +S100B” value came to 3.974; the “Specific activity … CTRL” value is listed as 0.564. Also, in the data set on HA-NDR1, the “kinase activity of HA-NDR1 variants, +OA” value is on record as 0.6019 and the “kinase activity of HA-NDR1 variants, −OA” value turned out to be 0.1067.
Take “K118A: NDR1 kinase dead mutant, Lys 118 to alanine; GST fusion or HA-tagged”: in the data set with GST-NDR1 [1], the “amount of incorporated 32P … −S100B” value was 0.0076; the “amount of incorporated 32P … +S100B” value is 0.0064; the “autophosphorylation rate” value is reported as “did not show detectable autophosphorylation”. In addition, in the data set with GST-NDR1 [2], the “Specific activity … −S100B” value is reported as 0.272; the “Specific activity … +S100B” value is listed as 0.222; the “Specific activity … CTRL” value was 0.158. For the same substance, in the data set on HA-NDR1, the “kinase activity of HA-NDR1 variants, +OA” value came out at 0.0204 and the “kinase activity of HA-NDR1 variants, −OA” value is 0.0107.
